{"source": "patent US20250313634A1", "about": "(WUXI BIOLOGICS SHANGHAI, published 2025)", "experiment_in_all_cases": "capture ELISA on coated 1.14.4; relative to silent alanine substitutions", "key": {"[1]": {"biological_target": "T1, hPD-L1_ECD.His point mutant S169A (human, UniProt Q9NZQ7 19-238)", "T1 construct": "extracellular domain", "T1 sequence (Q9NZQ7 19-238 S169A)": "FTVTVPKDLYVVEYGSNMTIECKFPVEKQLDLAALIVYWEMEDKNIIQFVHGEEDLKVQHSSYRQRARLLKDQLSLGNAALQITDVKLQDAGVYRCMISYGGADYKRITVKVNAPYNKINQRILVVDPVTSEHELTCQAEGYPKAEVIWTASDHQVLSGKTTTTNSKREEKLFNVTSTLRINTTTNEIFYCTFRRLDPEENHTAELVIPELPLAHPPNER", "outline": "(§1)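 Capture ELISA in which supernatant containing quantified PD-L1 alanine mutant was detected with HRP anti-His antibody. Absorbance was normalized to the average of control mutants. Epitope residues were called at binding fold change <0.55.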"}, "[2]": {"biological_target": "T2, hPD-L1_ECD.His point mutant E45A (human, UniProt Q9NZQ7 19-238)", "T2 construct": "extracellular domain", "T2 sequence (Q9NZQ7 19-238 E45A)": "as the sequence (Q9NZQ7 19-238 S169A) above, with E27A, A151S counted along it", "outline": "as §1"}, "[3]": {"biological_target": "T3, hPD-L1_ECD.His point mutant E237A (human, UniProt Q9NZQ7 19-238)", "T3 construct": "extracellular domain", "T3 sequence (Q9NZQ7 19-238 E237A)": "as the sequence (Q9NZQ7 19-238 S169A) above, with A151S, E219A counted along it", "outline": "as §1"}, "[4]": {"biological_target": "T4, hPD-L1_ECD.His point mutant D73A (human, UniProt Q9NZQ7 19-238)", "T4 construct": "extracellular domain", "T4 sequence (Q9NZQ7 19-238 D73A)": "as the sequence (Q9NZQ7 19-238 S169A) above, with D55A, A151S counted along it", "outline": "as §1"}, "[5]": {"biological_target": "T5, hPD-L1_ECD.His point mutant N135A (human, UniProt Q9NZQ7 19-238)", "T5 construct": "extracellular domain", "T5 sequence (Q9NZQ7 19-238 N135A)": "as the sequence (Q9NZQ7 19-238 S169A) above, with N117A, A151S counted along it", "outline": "as §1"}, "[6]": {"biological_target": "T6, hPD-L1_ECD.His point mutant A51G (human, UniProt Q9NZQ7 19-238)", "T6 construct": "extracellular domain", "T6 sequence (Q9NZQ7 19-238 A51G)": "as the sequence (Q9NZQ7 19-238 S169A) above, with A33G, A151S counted along it", "outline": "as §1"}, "[7]": {"biological_target": "T7, hPD-L1_ECD.His point mutant L142A (human, UniProt Q9NZQ7 19-238)", "T7 construct": "extracellular domain", "T7 sequence (Q9NZQ7 19-238 L142A)": "as the sequence (Q9NZQ7 19-238 S169A) above, with L124A, A151S counted along it", "outline": "as §1"}, "[8]": {"biological_target": "T8, hPD-L1_ECD.His point mutant D61A (human, UniProt Q9NZQ7 19-238)", "T8 construct": "extracellular domain", "T8 sequence (Q9NZQ7 19-238 D61A)": "as the sequence (Q9NZQ7 19-238 S169A) above, with D43A, A151S counted along it", "outline": "as §1"}, "[9]": {"biological_target": "T9, hPD-L1_ECD.His point mutant A52G (human, UniProt Q9NZQ7 19-238)", "T9 construct": "extracellular domain", "T9 sequence (Q9NZQ7 19-238 A52G)": "as the sequence (Q9NZQ7 19-238 S169A) above, with A34G, A151S counted along it", "outline": "as §1"}, "[10]": {"biological_target": "T10, hPD-L1_ECD.His point mutant N131A (human, UniProt Q9NZQ7 19-238)", "T10 construct": "extracellular domain", "T10 sequence (Q9NZQ7 19-238 N131A)": "as the sequence (Q9NZQ7 19-238 S169A) above, with N113A, A151S counted along it", "outline": "as §1"}, "[11]": {"biological_target": "T11, hPD-L1_ECD.His point mutant V128A (human, UniProt Q9NZQ7 19-238)", "T11 construct": "extracellular domain", "T11 sequence (Q9NZQ7 19-238 V128A)": "as the sequence (Q9NZQ7 19-238 S169A) above, with V110A, A151S counted along it", "outline": "as §1"}, "[12]": {"biological_target": "T12, hPD-L1_ECD.His point mutant T127A (human, UniProt Q9NZQ7 19-238)", "T12 construct": "extracellular domain", "T12 sequence (Q9NZQ7 19-238 T127A)": "as the sequence (Q9NZQ7 19-238 S169A) above, with T109A, A151S counted along it", "outline": "as §1"}, "[13]": {"biological_target": "T13, hPD-L1_ECD.His point mutant V225A (human, UniProt Q9NZQ7 19-238)", "T13 construct": "extracellular domain", "T13 sequence (Q9NZQ7 19-238 V225A)": "as the sequence (Q9NZQ7 19-238 S169A) above, with A151S, V207A counted along it", "outline": "as §1"}, "[14]": {"biological_target": "T14, hPD-L1_ECD.His point mutant E71A (human, UniProt Q9NZQ7 19-238)", "T14 construct": "extracellular domain", "T14 sequence (Q9NZQ7 19-238 E71A)": "as the sequence (Q9NZQ7 19-238 S169A) above, with E53A, A151S counted along it", "outline": "as §1"}, "[15]": {"biological_target": "T15, hPD-L1_ECD.His point mutant E205A (human, UniProt Q9NZQ7 19-238)", "T15 construct": "extracellular domain", "T15 sequence (Q9NZQ7 19-238 E205A)": "as the sequence (Q9NZQ7 19-238 S169A) above, with A151S, E187A counted along it", "outline": "as §1"}, "[16]": {"biological_target": "T16, hPD-L1_ECD.His point mutant E217A (human, UniProt Q9NZQ7 19-238)", "T16 construct": "extracellular domain", "T16 sequence (Q9NZQ7 19-238 E217A)": "as the sequence (Q9NZQ7 19-238 S169A) above, with A151S, E199A counted along it", "outline": "as §1"}, "[17]": {"biological_target": "T17, hPD-L1_ECD.His point mutant E188A (human, UniProt Q9NZQ7 19-238)", "T17 construct": "extracellular domain", "T17 sequence (Q9NZQ7 19-238 E188A)": "as the sequence (Q9NZQ7 19-238 S169A) above, with A151S, E170A counted along it", "outline": "as §1"}, "[18]": {"biological_target": "T18, hPD-L1_ECD.His point mutant L175A (human, UniProt Q9NZQ7 19-238)", "T18 construct": "extracellular domain", "T18 sequence (Q9NZQ7 19-238 L175A)": "as the sequence (Q9NZQ7 19-238 S169A) above, with A151S, L157A counted along it", "outline": "as §1"}, "[19]": {"biological_target": "T19, hPD-L1_ECD.His point mutant N236A (human, UniProt Q9NZQ7 19-238)", "T19 construct": "extracellular domain", "T19 sequence (Q9NZQ7 19-238 N236A)": "as the sequence (Q9NZQ7 19-238 S169A) above, with A151S, N218A counted along it", "outline": "as §1"}, "[20]": {"biological_target": "T20, hPD-L1_ECD.His point mutant I199A (human, UniProt Q9NZQ7 19-238)", "T20 construct": "extracellular domain", "T20 sequence (Q9NZQ7 19-238 I199A)": "as the sequence (Q9NZQ7 19-238 S169A) above, with A151S, I181A counted along it", "outline": "as §1"}, "[21]": {"biological_target": "T21, hPD-L1_ECD.His point mutant R212A (human, UniProt Q9NZQ7 19-238)", "T21 construct": "extracellular domain", "T21 sequence (Q9NZQ7 19-238 R212A)": "as the sequence (Q9NZQ7 19-238 S169A) above, with A151S, R194A counted along it", "outline": "as §1"}, "[22]": {"biological_target": "T22, hPD-L1_ECD.His point mutant V29A (human, UniProt Q9NZQ7 19-238)", "T22 construct": "extracellular domain", "T22 sequence (Q9NZQ7 19-238 V29A)": "as the sequence (Q9NZQ7 19-238 S169A) above, with V11A, A151S counted along it", "outline": "as §1"}, "[23]": {"biological_target": "T23, hPD-L1_ECD.His point mutant Q91A (human, UniProt Q9NZQ7 19-238)", "T23 construct": "extracellular domain", "T23 sequence (Q9NZQ7 19-238 Q91A)": "as the sequence (Q9NZQ7 19-238 S169A) above, with Q73A, A151S counted along it", "outline": "as §1"}, "[24]": {"biological_target": "T24, hPD-L1_ECD.His point mutant K89A (human, UniProt Q9NZQ7 19-238)", "T24 construct": "extracellular domain", "T24 sequence (Q9NZQ7 19-238 K89A)": "as the sequence (Q9NZQ7 19-238 S169A) above, with K71A, A151S counted along it", "outline": "as §1"}, "[25]": {"biological_target": "T25, hPD-L1_ECD.His point mutant Y32A (human, UniProt Q9NZQ7 19-238)", "T25 construct": "extracellular domain", "T25 sequence (Q9NZQ7 19-238 Y32A)": "as the sequence (Q9NZQ7 19-238 S169A) above, with Y14A, A151S counted along it", "outline": "as §1"}, "[26]": {"biological_target": "T26, hPD-L1_ECD.His point mutant S117A (human, UniProt Q9NZQ7 19-238)", "T26 construct": "extracellular domain", "T26 sequence (Q9NZQ7 19-238 S117A)": "as the sequence (Q9NZQ7 19-238 S169A) above, with S99A, A151S counted along it", "outline": "as §1"}}, "data": [{"binder": "1.14.4 (antibody, V domains shown, Fully human monoclonal antibody with a human constant region of IgG4 isotype) VH: EVQLLESGGGLVQPGGSLRLSCAASGFTFSSYAMSWVRQAPGKGLEWVSGISGSGGFTYYADSVKGRFTISRDNSKNTLYLQMNSLRAEDTAVYYCAKPPRGYNYGPFDYWGQGTLVTVSS VL: SYVLTQPPSVSVAPGQTARITCGGNNIGSKSVHWYQQKPGQAPVLVVYDDSDRPSGIPERFSGSNSGNTATLTISRVEAGDEADYYCQVWDSSSDHVVFGGGTKLTVL", "values": [{"measurement": "fold change", "setting": "[1]", "value": 0.939, "unit": "fold"}, {"measurement": "fold change", "setting": "[2]", "value": 0.942, "unit": "fold"}, {"measurement": "fold change", "setting": "[3]", "value": 0.956, "unit": "fold"}, {"measurement": "fold change", "setting": "[4]", "value": 0.988, "unit": "fold"}, {"measurement": "fold change", "setting": "[5]", "value": 1.03, "unit": "fold"}, {"measurement": "fold change", "setting": "[6]", "value": 1.03, "unit": "fold"}, {"measurement": "fold change", "setting": "[7]", "value": 1.05, "unit": "fold"}, {"measurement": "fold change", "setting": "[8]", "value": 0.372, "unit": "fold"}, {"measurement": "fold change", "setting": "[9]", "value": 0.622, "unit": "fold"}, {"measurement": "fold change", "setting": "[10]", "value": 0.68, "unit": "fold"}, {"measurement": "fold change", "setting": "[11]", "value": 0.701, "unit": "fold"}, {"measurement": "fold change", "setting": "[12]", "value": 0.735, "unit": "fold"}, {"measurement": "fold change", "setting": "[13]", "value": 0.749, "unit": "fold"}, {"measurement": "fold change", "setting": "[14]", "value": 0.772, "unit": "fold"}, {"measurement": "fold change", "setting": "[15]", "value": 0.801, "unit": "fold"}, {"measurement": "fold change", "setting": "[16]", "value": 0.823, "unit": "fold"}, {"measurement": "fold change", "setting": "[17]", "value": 0.833, "unit": "fold"}, {"measurement": "fold change", "setting": "[18]", "value": 0.842, "unit": "fold"}, {"measurement": "fold change", "setting": "[19]", "value": 0.848, "unit": "fold"}, {"measurement": "fold change", "setting": "[20]", "value": 0.848, "unit": "fold"}, {"measurement": "fold change", "setting": "[21]", "value": 0.87, "unit": "fold"}, {"measurement": "fold change", "setting": "[22]", "value": 0.882, "unit": "fold"}, {"measurement": "fold change", "setting": "[23]", "value": 0.906, "unit": "fold"}, {"measurement": "fold change", "setting": "[24]", "value": 0.913, "unit": "fold"}, {"measurement": "fold change", "setting": "[25]", "value": 0.935, "unit": "fold"}, {"measurement": "fold change", "setting": "[26]", "value": 0.935, "unit": "fold"}]}]}
